Assay results: the supplement of paper PMC9170038

Each sequence was assayed on MS2 coat protein (assay: apparent KD of MS2 coat protein, switch ON state; designed switch direction (-1 OFF switch, 1 ON switch): 1; higher = weaker reporter binding). Conditions: FMN input: 0 or 200 uM; Eterna round: R93 (includes R88 designs).
Procedure, shortened: (§1)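 Designed RNA switches were transcribed on-chip from Illumina sequencing clusters. They were then titrated with SNAP-549-labelled MS2 coat protein (twofold steps, 0.7 or 1.5 nM to 3 µM; 0.8–1.5 h to 10–20 min per step) in 100 mM Tris-HCl pH 7.5, 80 mM KCl, 4 mM MgCl2, without or with constant ligand. Apparent KD is the per-design median of normalised cluster binding-curve fits.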

| Sequence | apparent KD of MS2 coat protein [nM] |
| --- | --- |
| AAAAAACAUGAGGAUCACCCAUGUAAAAAAAACACAGGAUAUCCCUUUUUUAAAAAAAAAGGAGAAGGGUGAAAAA [Nob's Hobby 7 - Jieux - Same State 1] | 31.1 |
| CUUAGGAAGAGAGAGGAUAUCCAAAGGAAAACAUGAGGAUCACCCAUGUAAAAGGUAGGAAAUUGGGAGAAGGCUCAAGAGAGAG [salish99-ss2-080] | 26 |
| UUUAAUUAUACGAAGGAUAUCGGUAAUUAGACAUGAGGAUCACCCAUGUUAUAAGGUUCCAUAUUCGAGAAGGUCGCGGGUGAAC [JR_SS002_Sub509] | 16.1 |
| UGAAGACAUGAGGAUCACCCAUGUGGGAUUAUGGGAGGAUAUACAAAGACGAGAGUCAGAGUAGAAGGCCUAGGAC [salish99-ss1-119(!)] | 32.2 |
| AGGAAACAUGAGGAUCACCCAUGUAAAAGGUGGUUAGGAUAUGCGAUAAUAAAAAUAAUAGCAGAAGGGACAAGAA [Same State of Confusion3 mod Fisker] | 215 |
| AGGAAACAUGAGGAUCACCCAUGUAAAAAUAUGGGAGGAUAUACGAAGACGAAAGAAAAAGUAGAAGGCCUAAAAG [Garnet 14] | 63.6 |
| AGGAAACAUGAGGAUCACCCAUGUAAAAAAAUGGGAGGAUAUCCGCAUUAAUUAAAUGAAGGAGAAGGCCUAAAAA [71%, Same state of confusion2, 5] | 21.6 |
| AAGAAACAUGAGGAUCACCCAUGUAAGAUAUACACAGGAUAUGCGAAAAGAAACAAAGAAGCAGAAGGGUGGAAAA [75%, Ex sub1, 10] | 14.9 |
| AAACCACAUGAGGAUCACCCAUGUAGAAAUAUGGGAGGAUAUACAAAGACGAAAGUCAAAGUAGAAGGCCUAAAAG [77%, Mat - Mod of Eli, 5] | 31.4 |
| AGGAGACAUGAGGAUCACCCAUGUAGAAGGAUGGGAGGAUAUACAAAGACGAGAGUCAGAGUAGAAGGCCUAGGGA [salish99-ss1-183(!)] | 24.2 |
| AGGAAACAUGAGGAUCACCCAUGUAAAAAUAUGGGAGGAUAUACGAAGACGAAAGUGAGAGUAGAAGGCCUAAAAG [Garnet 8] | 30.9 |
| GAAAAACAUGAGGAUCACCCAUGUGAGAAUAUGGGAGGAUAUACAAGGACGAGAGUCAAGGUAGAAGGCCUAAAAG [Mat - Same State 1 - Eli mod - 29] | 41.7 |
| AGGAAACAUGAGGAUCACCCAUGUAAAAAUAUGGGAGGAUAUGCGAAAAGAAACAAAGAAGCAGAAGGCCUAAAAA [75%, Ex sub1, 21] | 21.9 |
| AAAUAAAUGACUGAGGAUAUAUCGAUGUGUACAUGAGGAUCACCCAUGUGUGAAUAAAAAGGGUGGUAGAAGGUAGUCAACAAAC [Mod 17 of Pariah 4 by Hyphema in Round 1] | 76.9 |
| AGGAAACAUGAGGAUCACCCAUGUAAAGAUGGAGGAGGAUAUCGAAAGAAAAGAAAGAAACGAGAAGGCCUAAAAG [59%, Flamingo, 2] | 20.9 |
| CGAUCACAUGAGGAUCACCCAUGUAUCGAUAAACGAGGAUAUGGGAGCGGGAUCUGUGGACCAGAAGGCGUACGGA [Celeus] | 23.4 |
| AAGAAACAUGAGGAUCACCCAUGUGAUAAUAUGGGAGGAUAUACGAAGACGAAAGUCGAAGUAGAAGGCCUAUGAA [Garnet 42] | 40.2 |
| AGGAAACAUGAGGAUCACCCAUGUAUAAAAAUGGAAGGAUAUACUAAGACGAAAGUCAUAGUAGAAGGUCUAAAAA [76%, Meechl, 10] | 16.6 |
| AAUAAACAUGAGGAUCACCCAUGUUUUAAUAGUUGAGGAUAUACGGGUGAAAAUAGCAUAGUAGAAGGCGAGUGUA [SameState1 Malc#13] | 31.2 |
| UUUAAUUAUACGAAGGAUAUCGGUAAUUAGACAUGAGGAUCACCCAUGUUAUAUGGUUAAAUAUUCGAGAAGGUCGCGGGUGAAC [JR_SS002_Sub507] | 47.8 |
| AAAAAACAUGAGGAUCACCCAUGUAGAAAUAUGGAAGGAUAUGGAAACACGAAAGUGAAACCAGAAGGUCCAAAAG [77%, Mat - Mod of Eli, 9] | 18 |
| AAAUAACAUGAGGAUCACCCAUGUUGCAACGAUACAGGAUAUGUGGGUGAAAAUAGCAUGACAGAAGGGUAAUGUA [SameState1 Malc#31] | 401 |
| AUAUGAGCUAUGGAGGAUAUCCAUAACAAGACAUGAGGAUCACCCAUGUAAGAAAGAAAAGAAUGGGAGAAGGCCAUAGCUCAAU [SS 2 M46] | 37.9 |
| CAUCAUGCGCCUAAGGAUAUGUCUCACAAGACAUGAGGAUCACCCAUGUAGCCAAAAUAAACGAUGCAGAAGGUGGAGCACAUGC [Atrexe] | 271 |
| GUGGCCCAGGCACAGGAUAUGUUUCUCGUAACAUGAGGAUCACCCAUGUGCCUAUGAGAUUUAAUGCAGAAGGGUGCACGCCACG [Atiinbe] | 16.4 |

What follows are sequences tested on MS2 coat protein (assay: apparent KD of MS2 coat protein, switch ON state; designed switch direction (-1 OFF switch, 1 ON switch): -1; higher = weaker reporter binding). Conditions: FMN input: 0 or 200 uM; Eterna round: R93 (includes R88 designs).
Procedure, shortened: as §1

| Sequence | apparent KD of MS2 coat protein [nM] |
| --- | --- |
| AAAACACAUGAGGAUCACCCAUGUGAGGAUAUGCUAUGGAAAUAAAAAAUAAAACAUAGCAGAAGGCACAAGGA [Mat - Exclusion 1 - Eli mod - D45] | 31.1 |
| AACAGUACAGGAUAUACAUGAGGAUCACCCAUGUGAGAAUUUAGCAGCGUAACACACAGUAGAAGGGUAAUGGA [Ruby 21] | 45.4 |
| GAAAAACAUGAGGAUCACCCAUGUCAGGAUAUCGAAAAAUAAAUAAAAAUAAAAUAAACGAGAAGGGACAAAAG [Mat - Same state - Mayanna Mod - D111] | 50.2 |
| AAAAAACAUGAGGAUCACCCAUGUGAGGAUAUGGAAAAGAAAAGAAAAGAAAGAAGAACCAGAAGGCACAAGAA [Khafre] | 30 |
| AAGAAGUCAGGAUAUGCUGAUAGUAAAUUGAGUGAUGAGUAGCAGAAGGGACAUGAGGAUCACCCAUGUAAAGA [Opal 12] | 45.4 |
| AAAAAAAGAGGAUAUACAUGAGAAAAAAAAAUGUAAAAAAAACAUGAGGAUCACCCAUGUAGAAGGCUUAAAAA [Ecxl-I] | 33.5 |
| AAAAAGUGAGGAUAUACAUGAGGAUCACCCAUGUUAAGGUAAUAUAUAUAUAUAUAUAGUAGAAGGCACAAAAA [Default title] | 32.4 |
| GGUUGGCGAGGAUAUACAUGAGGAUCACCCAUGUGAGCGAAAAAAGUGAGAAAGAAAAGUAGAAGGCGCUGACG [salish99-ex3-50] | 45.7 |
| CAGUACUGAGGAUAUACAUGAGGAUCACCCAUGUAUCCAAGCUAGGAAACUAGCAAAAGUAGAAGGCAGUACUG [Ex3: 820] | 13.2 |
| AACAGUACAGGAUAUACAUGAGGAUCACCCAUGUCACAACAAAGCAGCGCAACACAAAGUAGAAGGGUAAUGGA [Ruby 15] | 34.6 |
| AGGGAGUGAGGAUAUACGAAAAAAAAAGAAGGAAAAAAAGAGUAGAAGGCACAUGAGGAUCACCCAUGUAAGAA [milkweed 13] | 35.8 |
| AAUAUGGGAGGAUAUGCAUAGAUAAAGAAACAUGUUAAAACACAUGAGGAUCACCCAUGUAGAAGGCCCAUAUA [AJ 10] | 103 |
| AAAAAAAGAGGAUAUACGAACAUGUCGAAAGACGUGAAGGGACAUGAGGAUCACCCAUGUAGAAGGUUUAAAAA [Mat - Exclusion 2 - JL mod - D83] | 28.5 |
| AAAAUGUCAGGAUAUGCGAAGGCAUCUGACAGAUGAGGAUUGCAGAAGGGACAUGAGGAUCACCCAUGUAAAAA | 66.7 |
| UUUAUGUGAGGAUAUACGAAUAGUAAGUAAGUCUUACAGACGUAGAAGGCACAUGAGGAUCACCCAUGUGAACC [JR_Exc004_Sub309] | 46.4 |
| AAAAAACAUGAGGAUCACCCAUGUGAGGAUAUCGAAAAGUCAAAGAAAAAGACGAAAACGAGAAGGCGCAAAAA [Inspired by Nando] | 23.7 |
| CAGUACUGAGGAUAUACAUGAGGAUCACCCAUGUAUCCUAGCUAGGAAACUAGCAAAUGUAGAAGGCAGUACUG [Ex3: 818] | 47.6 |
| GCGCACUAAGGAUAUACAUGAGGAUCACCCAUGUGGGUUUUGAAACAGAUUAAAUAGUGUAGAAGGUAGAAAAC [Lees] | 91.9 |
